Measured values from publication PMC8876501, “Structural and Functional Insight into the Mechanism of Bacillus subtilis 6S-1 RNA Release from RNA Polymerase”.

What was measured:
[1] = target: T1, native sigmaA-RNA polymerase holoenzyme (Bacillus subtilis, UniProt P20429;P37870;P37871;P06224 1-314;1-1193;1-1199;1-371); test: EMSA; 5 mM Mg2+, heparin 80 ng/uL; 40 mM Tris-HCl pH 8.0, 5 mM MgCl2, 160 mM KCl, 1 mM DTT, heparin 80 ng/uL, ~10 nM RNA, plus RNAP storage buffer; 30 min at 37 C; native 7.5% PAGE (10% for Fig 12); conditions: protein: native, chain copies: 2;1;1;1, label: 5'-32P
T1 sequence (P20429 whole entry, chain 1 of 4): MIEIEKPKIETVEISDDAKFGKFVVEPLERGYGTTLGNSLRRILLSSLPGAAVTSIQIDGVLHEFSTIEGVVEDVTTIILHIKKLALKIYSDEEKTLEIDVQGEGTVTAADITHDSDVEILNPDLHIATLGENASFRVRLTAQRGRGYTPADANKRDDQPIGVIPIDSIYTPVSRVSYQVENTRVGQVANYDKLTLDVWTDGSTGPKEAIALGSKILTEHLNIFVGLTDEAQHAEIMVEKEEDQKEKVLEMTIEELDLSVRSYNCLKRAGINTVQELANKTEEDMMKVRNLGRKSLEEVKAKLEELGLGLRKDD
T1 sequence (P37870 whole entry, chain 2 of 4): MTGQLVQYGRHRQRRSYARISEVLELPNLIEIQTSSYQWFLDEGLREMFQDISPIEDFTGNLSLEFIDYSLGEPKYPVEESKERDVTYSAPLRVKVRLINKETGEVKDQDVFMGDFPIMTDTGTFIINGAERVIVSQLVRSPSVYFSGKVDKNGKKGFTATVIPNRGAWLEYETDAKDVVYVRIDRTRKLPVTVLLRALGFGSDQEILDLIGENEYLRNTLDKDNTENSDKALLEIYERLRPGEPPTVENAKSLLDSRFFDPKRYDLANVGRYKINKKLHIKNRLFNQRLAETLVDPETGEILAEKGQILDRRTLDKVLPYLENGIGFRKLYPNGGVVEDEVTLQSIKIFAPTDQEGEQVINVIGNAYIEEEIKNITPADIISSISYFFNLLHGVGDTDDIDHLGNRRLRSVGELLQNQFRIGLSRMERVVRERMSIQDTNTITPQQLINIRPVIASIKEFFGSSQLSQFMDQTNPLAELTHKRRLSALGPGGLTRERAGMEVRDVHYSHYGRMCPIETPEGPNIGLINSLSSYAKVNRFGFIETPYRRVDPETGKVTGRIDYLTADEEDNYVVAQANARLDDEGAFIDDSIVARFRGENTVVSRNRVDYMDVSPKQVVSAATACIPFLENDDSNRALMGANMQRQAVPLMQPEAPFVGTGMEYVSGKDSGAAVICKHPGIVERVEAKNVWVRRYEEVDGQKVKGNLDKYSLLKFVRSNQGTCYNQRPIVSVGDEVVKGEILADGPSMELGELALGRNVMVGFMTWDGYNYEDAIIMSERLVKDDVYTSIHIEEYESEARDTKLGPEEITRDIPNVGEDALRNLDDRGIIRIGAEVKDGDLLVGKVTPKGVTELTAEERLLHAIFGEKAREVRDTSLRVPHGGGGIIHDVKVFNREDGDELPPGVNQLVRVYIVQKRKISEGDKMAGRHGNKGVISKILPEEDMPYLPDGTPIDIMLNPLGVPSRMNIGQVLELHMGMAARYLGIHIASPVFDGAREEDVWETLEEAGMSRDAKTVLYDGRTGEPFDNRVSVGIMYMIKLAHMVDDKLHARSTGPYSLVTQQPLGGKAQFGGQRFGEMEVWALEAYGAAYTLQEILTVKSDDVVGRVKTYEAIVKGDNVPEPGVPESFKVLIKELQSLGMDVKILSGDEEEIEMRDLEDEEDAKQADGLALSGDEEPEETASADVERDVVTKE
T1 sequence (P37871 whole entry, chain 3 of 4): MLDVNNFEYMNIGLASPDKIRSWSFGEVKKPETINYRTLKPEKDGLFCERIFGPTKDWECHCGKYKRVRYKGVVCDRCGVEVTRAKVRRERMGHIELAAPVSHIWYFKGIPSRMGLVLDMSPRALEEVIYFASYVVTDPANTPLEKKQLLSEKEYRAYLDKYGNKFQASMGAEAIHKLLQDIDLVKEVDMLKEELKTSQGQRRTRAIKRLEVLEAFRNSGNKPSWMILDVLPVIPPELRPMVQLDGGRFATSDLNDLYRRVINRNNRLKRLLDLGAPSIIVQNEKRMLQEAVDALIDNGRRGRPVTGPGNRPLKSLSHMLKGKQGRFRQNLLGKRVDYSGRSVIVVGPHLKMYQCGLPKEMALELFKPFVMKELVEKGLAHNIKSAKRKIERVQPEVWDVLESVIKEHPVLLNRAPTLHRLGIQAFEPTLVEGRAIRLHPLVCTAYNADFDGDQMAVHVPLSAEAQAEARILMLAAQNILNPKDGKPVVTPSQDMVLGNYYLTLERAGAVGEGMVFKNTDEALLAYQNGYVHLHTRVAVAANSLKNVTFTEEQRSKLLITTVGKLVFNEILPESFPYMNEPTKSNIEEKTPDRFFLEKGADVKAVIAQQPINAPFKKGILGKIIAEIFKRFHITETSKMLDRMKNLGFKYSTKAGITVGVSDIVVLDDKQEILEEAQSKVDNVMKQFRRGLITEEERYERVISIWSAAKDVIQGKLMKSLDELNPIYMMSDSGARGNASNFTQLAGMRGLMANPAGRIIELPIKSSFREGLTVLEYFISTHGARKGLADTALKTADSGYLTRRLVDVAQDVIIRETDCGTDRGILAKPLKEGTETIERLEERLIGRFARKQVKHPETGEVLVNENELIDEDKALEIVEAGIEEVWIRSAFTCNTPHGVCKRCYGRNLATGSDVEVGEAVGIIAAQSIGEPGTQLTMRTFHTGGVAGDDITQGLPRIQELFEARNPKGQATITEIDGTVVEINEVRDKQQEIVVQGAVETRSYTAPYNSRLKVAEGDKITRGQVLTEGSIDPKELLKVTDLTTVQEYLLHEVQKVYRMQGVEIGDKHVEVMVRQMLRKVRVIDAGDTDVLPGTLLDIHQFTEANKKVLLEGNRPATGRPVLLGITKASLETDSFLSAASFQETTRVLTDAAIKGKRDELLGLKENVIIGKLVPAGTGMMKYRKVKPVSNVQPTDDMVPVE
T1 sequence (P06224 whole entry, chain 4 of 4): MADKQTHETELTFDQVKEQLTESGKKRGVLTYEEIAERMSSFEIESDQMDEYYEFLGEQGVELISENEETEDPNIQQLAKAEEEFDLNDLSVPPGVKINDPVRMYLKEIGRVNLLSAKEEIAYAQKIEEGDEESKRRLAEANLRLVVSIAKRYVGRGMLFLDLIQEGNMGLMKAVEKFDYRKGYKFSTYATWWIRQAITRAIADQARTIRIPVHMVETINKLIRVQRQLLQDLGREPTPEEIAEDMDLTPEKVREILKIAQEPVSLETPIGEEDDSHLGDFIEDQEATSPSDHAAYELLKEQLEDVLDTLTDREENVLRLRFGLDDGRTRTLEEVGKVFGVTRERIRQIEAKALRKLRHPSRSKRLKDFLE

[2] = target: T1, native sigmaA-RNA polymerase holoenzyme; test: EMSA; pRNA pre-annealed; 40 mM Tris-HCl pH 8.0, 5 mM MgCl2, 160 mM KCl, 1 mM DTT, heparin 80 ng/uL, ~10 nM RNA, plus RNAP storage buffer; 30 min at 37 C; native 7.5% PAGE (10% for Fig 12); conditions: protein: native; chain copies: 2;1;1;1; label: 5'-32P on 6S-1 RNA; pRNA annealed to 6S-1 RNA from nt 40 upstream
[3] = target: T1, native sigmaA-RNA polymerase holoenzyme; test: EMSA; pLNA pre-annealed; 40 mM Tris-HCl pH 8.0, 5 mM MgCl2, 160 mM KCl, 1 mM DTT, heparin 80 ng/uL, ~10 nM RNA, plus RNAP storage buffer; 30 min at 37 C; native 7.5% PAGE (10% for Fig 12); conditions: protein: native; chain copies: 2;1;1;1; label: 5'-32P on 6S-1 RNA; pLNA annealed to 6S-1 RNA from nt 40 upstream
[4] = target: T2, sigmaA-RNA polymerase holoenzyme (native or His-tagged SG7 preparation, not specified for this assay) (Bacillus subtilis, UniProt P20429;P37870;P37871;P06224 1-314;1-1193;1-1199;1-371); test: EMSA; K1/2 printed only in graph; 40 mM Tris-HCl pH 8.0, 5 mM MgCl2, 160 mM KCl, 1 mM DTT, heparin 80 ng/uL, ~10 nM RNA, plus RNAP storage buffer; 30 min at 37 C; native 7.5% PAGE (10% for Fig 12); conditions: protein: native; chain copies: 2;1;1;1; label: 5'-32P
T2 sequence (P20429 whole entry, chain 1 of 4): as the sequence (P20429 whole entry, chain 1 of 4) above
T2 sequence (P37870 whole entry, chain 2 of 4): as the sequence (P37870 whole entry, chain 2 of 4) above
T2 sequence (P37871 whole entry, chain 3 of 4): as the sequence (P37871 whole entry, chain 3 of 4) above
T2 sequence (P06224 whole entry, chain 4 of 4): as the sequence (P06224 whole entry, chain 4 of 4) above

[5] = target: T1, native sigmaA-RNA polymerase holoenzyme; test: EMSA; up to 3-fold with other RNAP preparations; 40 mM Tris-HCl pH 8.0, 5 mM MgCl2, 160 mM KCl, 1 mM DTT, heparin 80 ng/uL, ~10 nM RNA, plus RNAP storage buffer; 30 min at 37 C; native 7.5% PAGE (10% for Fig 12); conditions: protein: native; chain copies: 2;1;1;1; label: 5'-32P
[6] = target: T1, native sigmaA-RNA polymerase holoenzyme; test: EMSA; Kd printed only in graph; 40 mM Tris-HCl pH 8.0, 5 mM MgCl2, 160 mM KCl, 1 mM DTT, heparin 80 ng/uL, ~10 nM RNA, plus RNAP storage buffer; 30 min at 37 C; native 7.5% PAGE (10% for Fig 12); conditions: protein: native; chain copies: 2;1;1;1; label: 5'-32P
[7] = target: T2, sigmaA-RNA polymerase holoenzyme …; test: EMSA; almost three-fold; K1/2 only in graph; 40 mM Tris-HCl pH 8.0, 5 mM MgCl2, 160 mM KCl, 1 mM DTT, heparin 80 ng/uL, ~10 nM RNA, plus RNAP storage buffer; 30 min at 37 C; native 7.5% PAGE (10% for Fig 12); conditions: protein: native; chain copies: 2;1;1;1; label: 5'-32P

B1: 6S78 RNA (structured_RNA)
RNA: CCUAGUUUUGACCGAACAUUUUUUUGAUUUGGGAGCCCGCAGGGCACCCACCUGCUGAGAGCGGGUUCAAAACAAAGG
With B1 the “apparent K (half saturation)” value [1] was roughly 1000 nM.

B2: 6S82cp RNA (structured_RNA)
RNA: GGGCACCCACCUGCUGAGAGCGGGUUCAAAACAAAGGAAAGCCACCUAGUUUUGACCGAACAUUUUUUUGAUUUGGGAGCCC
With B2 the “apparent K (half saturation)” value ([1]; artificial loop capping P2) was roughly 1000 nM.

B3: wt 6S-1 RNA (190 nt) (structured_RNA)
RNA: AGUCCUGAUGUGUUAGUUGUACACCUAGUUUUGACCGAACAUUUUUUUGAUUUGGGAGCCCGCAUUUUUAAAUGGCGUACAUGCCUCUUUUCAUUCGGUAAAGAGGACUUACAAGAUUUAAAAGAGGGCACCCACCUGCUGAGAGCGGGUUCAAAACAAAGGAAAGCUGCAACGGCACUAUUGGGACUUU
B3 was tested, and the “apparent K (half saturation)” value ([1]; rod-shaped, central bubble flanked by two helical arms) was roughly 100 nM.

B4: 6S-1 RNA:pRNA 14-mer (structured_RNA)
RNA 1: AGUCCUGAUGUGUUAGUUGUACACCUAGUUUUGACCGAACAUUUUUUUGAUUUGGGAGCCCGCAUUUUUAAAUGGCGUACAUGCCUCUUUUCAUUCGGUAAAGAGGACUUACAAGAUUUAAAAGAGGGCACCCACCUGCUGAGAGCGGGUUCAAAACAAAGGAAAGCUGCAACGGCACUAUUGGGACUUU
RNA 2: GUUCGGUCAAAACU
B4: no binding [2].

B5: 6S-1 RNA:pLNA 7-mer (mixed)
RNA: AGUCCUGAUGUGUUAGUUGUACACCUAGUUUUGACCGAACAUUUUUUUGAUUUGGGAGCCCGCAUUUUUAAAUGGCGUACAUGCCUCUUUUCAUUCGGUAAAGAGGACUUACAAGAUUUAAAAGAGGGCACCCACCUGCUGAGAGCGGGUUCAAAACAAAGGAAAGCUGCAACGGCACUAUUGGGACUUU
DNA: GTTCGGT
modifications: strand 2 LNA, iso-sequential to pRNA (first 7 nt inferred)
B5: no binding [3].

B6: 6S-1 RNA:pLNA 8-mer (mixed)
RNA: AGUCCUGAUGUGUUAGUUGUACACCUAGUUUUGACCGAACAUUUUUUUGAUUUGGGAGCCCGCAUUUUUAAAUGGCGUACAUGCCUCUUUUCAUUCGGUAAAGAGGACUUACAAGAUUUAAAAGAGGGCACCCACCUGCUGAGAGCGGGUUCAAAACAAAGGAAAGCUGCAACGGCACUAUUGGGACUUU
DNA: GTTCGGTC
modifications: strand 2 all-LNA
B6: no binding [3].

B7: C44/45 8M 6S-1 RNA (structured_RNA)
RNA: AGUCCUGAUGUGUUAGUUGUACACCUAGUCAAGGCCGAACAUUCCUUUGAUUUGGGAGCCCGCAUUUUUAAAUGGCGUACAUGCCUCUUUUCAUUCGGUAAAGAGGACUUACAAGAUUUAAAAGAGGGCACCCACCUGCUGAGAGCGGGUCCUUGACAAAGGAAAGCUGCAACGGCACUAUUGGGACUUU
In the case of B7, the binding signal [4] is reported as ~1.5 fold lower affinity vs wt 8M.

B8: 6S-1 RNA C44/45 (structured_RNA)
RNA: AGUCCUGAUGUGUUAGUUGUACACCUAGUUUUGACCGAACAUUCCUUUGAUUUGGGAGCCCGCAUUUUUAAAUGGCGUACAUGCCUCUUUUCAUUCGGUAAAGAGGACUUACAAGAUUUAAAAGAGGGCACCCACCUGCUGAGAGCGGGUUCAAAACAAAGGAAAGCUGCAACGGCACUAUUGGGACUUU
Work on B8 yielded a binding signal [5] of roughly 2 fold lower affinity vs wt.

B9: 6S-1 RNA A50U (structured_RNA)
RNA: AGUCCUGAUGUGUUAGUUGUACACCUAGUUUUGACCGAACAUUUUUUUGUUUUGGGAGCCCGCAUUUUUAAAUGGCGUACAUGCCUCUUUUCAUUCGGUAAAGAGGACUUACAAGAUUUAAAAGAGGGCACCCACCUGCUGAGAGCGGGUUCAAAACAAAGGAAAGCUGCAACGGCACUAUUGGGACUUU
Work on B9 yielded a binding signal [6] of roughly 2 fold Kd increase vs wt.

B10: 6S-1 RNA:pLNA 6-mer (mixed)
RNA: AGUCCUGAUGUGUUAGUUGUACACCUAGUUUUGACCGAACAUUUUUUUGAUUUGGGAGCCCGCAUUUUUAAAUGGCGUACAUGCCUCUUUUCAUUCGGUAAAGAGGACUUACAAGAUUUAAAAGAGGGCACCCACCUGCUGAGAGCGGGUUCAAAACAAAGGAAAGCUGCAACGGCACUAUUGGGACUUU
DNA: GTTCGG
modifications: strand 2 LNA, iso-sequential to pRNA (first 6 nt inferred)
B10: no binding [3].

B11: C44/45 6M 6S-1 RNA (structured_RNA)
RNA: AGUCCUGAUGUGUUAGUUGUACACCUAGUCAAGGCCGAACAUUCCUUUGAUUUGGGAGCCCGCAUUUUUAAAUGGCGUACAUGCCUCUUUUCAUUCGGUAAAGAGGACUUACAAGAUUUAAAAGAGGGCACCCACCUGCUGAGAGCGGGUUCAUGACAAAGGAAAGCUGCAACGGCACUAUUGGGACUUU
B11 was tested, and the binding signal [7] was ~3 fold lower affinity vs wt 6M.
